Results: publication PMC3961693

Target: IL-6 (human) (UniProt P05231)
Details: 32 nt; six 2'-O-methyl; eight Bn-dU; one Pe-dU; one Nap-dU (position 12); Bn-dU at 7, 8, 14, 15, 22, 23, 27, 30 named in text; binding assay method and buffer not given in the …

Sequence of IL-6 (human) (P05231 30-212): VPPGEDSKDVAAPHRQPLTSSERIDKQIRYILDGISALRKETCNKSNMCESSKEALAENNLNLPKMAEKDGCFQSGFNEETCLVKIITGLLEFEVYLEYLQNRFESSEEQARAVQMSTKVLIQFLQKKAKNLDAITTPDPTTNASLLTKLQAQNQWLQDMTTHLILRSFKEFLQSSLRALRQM

GGCAGGUUUGGUAUUAACACGUUAAGUCGUGG [SL1025]
Kd: 200 pM
